Reference: patent publication US20200392227A1 (LYVGEN BIOPHARMA, published 2020)
Where two headings read alike, the source gives them in different places. One block for each binder: values may come before it.

Legend:
[1] = target: T1, human FcγRIIA(R131) expressed on CHO cells (human, UniProt P12318 34-317); experiment: FACS, CHO cells expressing FcγRIIA(R131)
T1 construct: whole, on cells
T1 sequence (looked up): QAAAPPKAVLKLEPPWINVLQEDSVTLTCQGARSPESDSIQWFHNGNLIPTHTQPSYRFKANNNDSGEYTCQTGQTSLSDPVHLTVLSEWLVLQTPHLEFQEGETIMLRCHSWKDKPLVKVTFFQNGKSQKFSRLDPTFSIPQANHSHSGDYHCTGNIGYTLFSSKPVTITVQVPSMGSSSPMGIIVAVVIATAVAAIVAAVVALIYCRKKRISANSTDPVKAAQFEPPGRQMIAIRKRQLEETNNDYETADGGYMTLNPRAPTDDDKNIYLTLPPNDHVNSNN
Protocol: FIGS. 1A-1W are charts showing binding activity of various IgG variants as indicated to different types of Fcγ receptors expressed on CHO-K1 cells at the various concentrations as indicated. The concentrations of each IgG variant, from left to right, are 0 μg/ml, 0.3 μg/ml, 1 μg/ml, 3 μg/ml, and 10 μg/ml in FIGS. 1A-1C, 1E-J, 1L-1M, 1P-1R, and 1T-1V. For FIGS. 1D, 1K, 10, 1S, and 1w the bars, from left to right, correspond to the following concentrations of IgG variant: 0.3 μg/ml, 1 μg/ml, 3 μg/ml, and 10 μg/ml.
(§1) For FACS analysis of the IgG mutants' binding to different FcγRs, FcγR overexpressing CHO cells were harvested using trypsin-EDTA and were suspended in cold staining buffer (3% BSA in PBS). Test IgG mutants, which were diluted in staining buffer, were added into the cells. The mixture was incubated 4° C. for 2 hours, and then washed twice with cold staining buffer and re-suspended in PE-labeled anti-human IgG followed by incubation at 4° C. for 2 hours. The mixture was washed twice with staining buffer and re-suspended in 2% PFA in PBS for FACS.

[2] = target: T2, human FcRI protein (MednaBio, E1031) (human, UniProt P12314 16-288, limits assumed); experiment: BLI
T2 construct: Bought; loaded on anti-penta-HIS biosensors; also called FcγRI
Summary of the method: (§2)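 On an Octet Red96 System, anti-penta-HIS biosensors loaded with commercial human Fc receptor proteins were dipped into test IgG diluted 1:3 over 8 points from 300 nM. Fcγ receptor runs used pH 7.2 and FcRn runs used pH 6. Global fitting of these biolayer interferometry data gave the values for Kd, kon and koff, using a 1:1 binding model.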

[3] = target: T3, human FcRIIB/C protein (MednaBio, E1034) (human, UniProt P31994 43-217, limits assumed); experiment: BLI
T3 construct: Bought as FcRIIB/C; also called FcγRIIB; CD32B
T3 sequence (looked up): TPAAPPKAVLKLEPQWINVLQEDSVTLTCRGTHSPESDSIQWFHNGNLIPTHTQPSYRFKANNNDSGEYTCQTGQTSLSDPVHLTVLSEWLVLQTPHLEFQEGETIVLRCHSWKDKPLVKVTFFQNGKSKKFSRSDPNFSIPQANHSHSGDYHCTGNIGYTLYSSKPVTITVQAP
Summary of the method: as §2

[4] = target: T4, human FcRIIIA-V158 protein (MednaBio, E1035) (human, UniProt P08637 17-208); experiment: BLI
T4 construct: Bought; also called FcγRIIIA(V); FcgRIIIA(V)
Summary of the method: as §2

[5] = target: T5, human FcRIIIA-F158 protein (MednaBio, E1036) (human, UniProt P08637 17-208); experiment: BLI
T5 construct: Bought; also called FcγRIIIA(F)
Summary of the method: as §2

[6] = target: T6, human FcRIIA protein (MednaBio, E1033) (human, UniProt P12318 34-218, limits assumed); experiment: BLI
T6 construct: Bought; also called FcγRIIA
T6 sequence (looked up): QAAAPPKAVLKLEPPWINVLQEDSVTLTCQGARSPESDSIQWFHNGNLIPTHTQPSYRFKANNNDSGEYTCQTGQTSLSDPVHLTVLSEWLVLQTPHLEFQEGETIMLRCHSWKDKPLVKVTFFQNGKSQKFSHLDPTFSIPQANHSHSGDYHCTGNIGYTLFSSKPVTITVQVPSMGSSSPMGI
Summary of the method: as §2

[7] = target: T7, human FcRn protein (MednaBio, E1032) (human, UniProt P55899 24-297; P61769 21-119); experiment: BLI
T7 construct: Bought; assays at pH 6
Summary of the method: as §2

[8] = target: T8, human FcRIIIB protein (MednaBio, E1037) (human, UniProt O75015 17-200); experiment: BLI
T8 construct: Bought; also called FcγRIIIB; FcgRIIIB
Summary of the method: as §2

[9] = target: T9, human FcγRIIC expressed on CHO cells (human, UniProt P31995 43-323); experiment: FACS, CHO cells expressing FcγRIIC
T9 construct: whole, on cells
T9 sequence (looked up): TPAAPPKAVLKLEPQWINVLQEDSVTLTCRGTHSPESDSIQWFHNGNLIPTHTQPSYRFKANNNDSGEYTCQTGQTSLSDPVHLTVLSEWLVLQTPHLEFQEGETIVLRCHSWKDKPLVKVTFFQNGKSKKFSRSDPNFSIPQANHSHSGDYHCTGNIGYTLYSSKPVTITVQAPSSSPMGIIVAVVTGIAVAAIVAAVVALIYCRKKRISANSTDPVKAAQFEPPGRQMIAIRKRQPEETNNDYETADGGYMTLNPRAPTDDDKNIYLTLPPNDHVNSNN

[10] = target: T10, human FcγRIIB expressed on CHO cells (human, UniProt P31994 43-310); experiment: FACS, CHO cells expressing FcγRIIB
T10 construct: whole, on cells; also called CD32B
T10 sequence (looked up): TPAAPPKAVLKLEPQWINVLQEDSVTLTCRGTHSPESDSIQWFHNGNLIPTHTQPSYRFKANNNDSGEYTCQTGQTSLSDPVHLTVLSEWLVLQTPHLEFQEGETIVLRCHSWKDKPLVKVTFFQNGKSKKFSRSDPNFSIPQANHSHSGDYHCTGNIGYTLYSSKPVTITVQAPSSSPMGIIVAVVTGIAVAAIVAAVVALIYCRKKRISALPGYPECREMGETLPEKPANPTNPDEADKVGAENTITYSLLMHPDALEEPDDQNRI
Protocol: as §1

[11] = target: T11, human FcγRIIA(H131) expressed on CHO cells (human, UniProt P12318 34-317); experiment: FACS, CHO cells expressing FcγRIIA(H131)
T11 construct: whole, on cells
T11 sequence (looked up): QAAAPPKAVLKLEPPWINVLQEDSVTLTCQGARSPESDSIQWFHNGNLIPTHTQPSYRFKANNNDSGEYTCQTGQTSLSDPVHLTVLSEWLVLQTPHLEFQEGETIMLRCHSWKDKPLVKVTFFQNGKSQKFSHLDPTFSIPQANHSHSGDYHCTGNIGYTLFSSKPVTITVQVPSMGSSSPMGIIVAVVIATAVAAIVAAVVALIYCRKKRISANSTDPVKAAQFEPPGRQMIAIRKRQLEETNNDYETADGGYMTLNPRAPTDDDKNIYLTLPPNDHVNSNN
Protocol: as §1

[12] = target: T2, human FcRI protein (MednaBio, E1031); experiment: BLI; remark: listed apart in the source
[13] = target: T3, human FcRIIB/C protein (MednaBio, E1034); experiment: BLI; remark: listed apart in the source
[14] = target: T4, human FcRIIIA-V158 protein (MednaBio, …); experiment: BLI; remark: listed apart in the source
[15] = target: T5, human FcRIIIA-F158 protein (MednaBio, …); experiment: BLI; remark: listed apart in the source
[16] = target: T6, human FcRIIA protein (MednaBio, E1033); experiment: BLI; remark: listed apart in the source
[17] = target: T7, human FcRn protein (MednaBio, E1032); experiment: BLI; remark: listed apart in the source
[18] = target: T8, human FcRIIIB protein (MednaBio, E1037); experiment: BLI; remark: listed apart in the source

T2 sequence (P12314 16-288 limits assumed): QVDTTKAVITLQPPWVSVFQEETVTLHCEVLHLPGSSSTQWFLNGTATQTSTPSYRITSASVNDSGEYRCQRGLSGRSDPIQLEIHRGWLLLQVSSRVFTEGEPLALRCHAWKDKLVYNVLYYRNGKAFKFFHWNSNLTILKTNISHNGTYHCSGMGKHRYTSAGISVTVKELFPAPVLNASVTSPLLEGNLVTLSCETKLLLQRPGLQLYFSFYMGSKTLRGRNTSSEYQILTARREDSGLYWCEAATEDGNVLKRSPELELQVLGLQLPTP
T4 sequence (P08637 17-208 F176V): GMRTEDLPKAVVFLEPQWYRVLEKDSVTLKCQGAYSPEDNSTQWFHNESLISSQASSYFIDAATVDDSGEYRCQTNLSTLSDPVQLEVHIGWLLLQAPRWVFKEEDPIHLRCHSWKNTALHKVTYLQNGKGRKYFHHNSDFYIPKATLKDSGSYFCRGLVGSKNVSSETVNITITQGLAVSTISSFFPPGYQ
T8 sequence (O75015 17-200 limits assumed): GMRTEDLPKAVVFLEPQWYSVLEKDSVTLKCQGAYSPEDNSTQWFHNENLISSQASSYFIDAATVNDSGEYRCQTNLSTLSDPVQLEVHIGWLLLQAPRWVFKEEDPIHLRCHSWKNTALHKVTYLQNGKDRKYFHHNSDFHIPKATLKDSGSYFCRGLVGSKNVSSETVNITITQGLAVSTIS
T5 sequence (P08637 17-208 limits assumed): as the sequence (P08637 17-208 F176V) above, with V160F counted along it

- binding result [1]: no binding (tested: 10 ug/ml)
- Kd [2]: 235 nM
- koff [2]: 0.0337 s⁻¹
- kon [2]: 144000 M⁻¹ s⁻¹
- Kd [3]: 656 nM
- koff [3]: 0.156 s⁻¹
- kon [3]: 238000 M⁻¹ s⁻¹
- Kd [4]: 456 nM
- koff [4]: 0.042 s⁻¹
- kon [4]: 92300 M⁻¹ s⁻¹
- Kd [5]: 1500 nM
- koff [5]: 0.175 s⁻¹
- kon [5]: 116000 M⁻¹ s⁻¹
- Kd [6]: 800 nM
- koff [6]: 0.247 s⁻¹
- kon [6]: 310000 M⁻¹ s⁻¹
- Kd [7]: 18.8 nM
- koff [7]: 0.015 s⁻¹
- kon [7]: 803000 M⁻¹ s⁻¹
- Kd [8]: 556 nM
- koff [8]: 0.144 s⁻¹
- kon [8]: 258000 M⁻¹ s⁻¹
B1: anti-CD137 IgG1 with Fc variant G1mAA (antibody)
heavy: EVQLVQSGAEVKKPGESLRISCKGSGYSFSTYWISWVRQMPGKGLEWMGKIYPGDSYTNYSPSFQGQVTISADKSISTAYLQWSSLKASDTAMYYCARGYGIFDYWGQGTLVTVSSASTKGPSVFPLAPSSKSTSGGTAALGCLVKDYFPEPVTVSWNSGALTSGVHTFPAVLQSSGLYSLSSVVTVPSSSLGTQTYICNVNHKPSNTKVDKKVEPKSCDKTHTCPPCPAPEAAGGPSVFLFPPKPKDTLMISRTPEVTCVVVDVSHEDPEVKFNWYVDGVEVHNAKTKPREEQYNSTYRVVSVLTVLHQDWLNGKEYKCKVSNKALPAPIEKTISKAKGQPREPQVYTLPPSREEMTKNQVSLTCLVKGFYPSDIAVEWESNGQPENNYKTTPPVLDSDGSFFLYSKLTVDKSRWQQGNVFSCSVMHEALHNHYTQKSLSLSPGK
light: SYELTQPPSVSVSPGQTASITCSGDNIGDQYAHWYQQKPGQSPVLVIYQDKNRPSGIPERFSGSNSGNTATLTISGTQAMDEADYYCATYTGFGSLAVFGGGTKLTVLGQPKAAPSVTLFPPSSEELQANKATLVCLISDFYPGAVTVAWKADSSPVKAGVETTTPSKQSNNKYAASSYLSLTPEQWKSHRSYSCQVTHEGSTVEKTVAPTECS
notes: copies: 2 + 2

- binding result [9]: no binding (tested: 10 ug/ml)
- binding result [10]: no binding (tested: 10 ug/ml)
- binding result [11]: no binding (tested: 10 ug/ml)
- binding result [12]: no binding (tested: 300 nM)
- binding result [13]: no binding (tested: 300 nM)
- binding result [14]: no binding (tested: 300 nM)
- binding result [15]: no binding (tested: 300 nM)
- binding result [16]: no binding (tested: 300 nM)
- Kd [17]: 13 nM
- koff [17]: 0.0093 s⁻¹
- kon [17]: 710000 M⁻¹ s⁻¹
- binding result [18]: no binding (tested: 300 nM)
B2: anti-CD137 IgG1 with Fc variant G1m2 (antibody)
heavy: EVQLVQSGAEVKKPGESLRISCKGSGYSFSTYWISWVRQMPGKGLEWMGKIYPGDSYTNYSPSFQGQVTISADKSISTAYLQWSSLKASDTAMYYCARGYGIFDYWGQGTLVTVSSASTKGPSVFPLAPSSKSTSGGTAALGCLVKDYFPEPVTVSWNSGALTSGVHTFPAVLQSSGLYSLSSVVTVPSSSLGTQTYICNVNHKPSNTKVDKKVEPKSCDKTHTCPPCPAPELLGPSVFLFPPKPKDTLMISRTPEVTCVVVDVSHEDPEVKFNWYVDGVEVHNAKTKPREEQYNSTYRVVSVLTVLHQDWLNGKEYKCKVSNKALPAPIEKTISKAKGQPREPQVYTLPPSREEMTKNQVSLTCLVKGFYPSDIAVEWESNGQPENNYKTTPPVLDSDGSFFLYSKLTVDKSRWQQGNVFSCSVMHEALHNHYTQKSLSLSPGK
light: SYELTQPPSVSVSPGQTASITCSGDNIGDQYAHWYQQKPGQSPVLVIYQDKNRPSGIPERFSGSNSGNTATLTISGTQAMDEADYYCATYTGFGSLAVFGGGTKLTVLGQPKAAPSVTLFPPSSEELQANKATLVCLISDFYPGAVTVAWKADSSPVKAGVETTTPSKQSNNKYAASSYLSLTPEQWKSHRSYSCQVTHEGSTVEKTVAPTECS
notes: copies: 2 + 2
